Data: patent publication US20130336988A1, “METHODS FOR TREATING EARLY STAGE OR MILD NEUROLOGICAL DISORDERS” (NEW YORK UNIVERSITY, priority 2010, published 2013)
One block for each molecule: values may come before it.

What was measured:
sortilin = molecular target: T1, sortilin (Homo sapiens, UniProt Q99523); assay: Co-immunoprecipitation of proNT with sortilin in transfected 293 cells; type: binding; conditions: 293 cells co-transfected with proNT and myc-sortilin; IP-Western blot
T1 construct: expressed in transfected cells; host or cells: HEK 293 cells (proBDNF) / 293T cells (proNGF)
T1 sequence (Q99523 78-831): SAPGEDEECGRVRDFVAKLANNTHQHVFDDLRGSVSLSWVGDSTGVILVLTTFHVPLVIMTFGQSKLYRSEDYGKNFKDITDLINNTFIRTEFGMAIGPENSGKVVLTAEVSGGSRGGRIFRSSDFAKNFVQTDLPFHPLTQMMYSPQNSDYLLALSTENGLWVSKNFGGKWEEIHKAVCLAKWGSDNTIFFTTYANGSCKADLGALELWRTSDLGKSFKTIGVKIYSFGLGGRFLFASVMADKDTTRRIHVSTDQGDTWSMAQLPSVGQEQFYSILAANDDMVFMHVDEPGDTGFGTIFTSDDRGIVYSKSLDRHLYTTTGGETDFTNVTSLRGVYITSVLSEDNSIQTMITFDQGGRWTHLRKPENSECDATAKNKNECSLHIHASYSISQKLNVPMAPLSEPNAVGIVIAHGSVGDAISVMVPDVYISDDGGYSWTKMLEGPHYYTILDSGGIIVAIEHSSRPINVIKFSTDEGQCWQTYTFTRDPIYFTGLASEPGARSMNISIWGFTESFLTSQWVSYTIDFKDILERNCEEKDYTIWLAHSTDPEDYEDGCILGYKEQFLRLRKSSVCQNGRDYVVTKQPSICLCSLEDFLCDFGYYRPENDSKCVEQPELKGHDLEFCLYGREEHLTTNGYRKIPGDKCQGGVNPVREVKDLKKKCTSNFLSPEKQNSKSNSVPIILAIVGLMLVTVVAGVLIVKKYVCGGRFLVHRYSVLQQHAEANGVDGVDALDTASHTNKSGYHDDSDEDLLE
Description: (§1) FIG. 2A-G. ProNTs induce growth cone collapse. (A, B) DIV3 hippocampal neurons transfected with LifeAct-RFP were imaged by time-lapse microscopy before (top panel) and starting approximately 2 min after (bottom panel) treatment with proBDNF (A) or proNGF (B). Actin dynamics stalled upon proNT treatment and subsequently the growth cone collapsed. Time is indicated in (min:sec). Scale bars, 10 μm. (C, D) DIV3 hippocampal cultures were fixed and stained for p75^NTR (C) and SorCS2 (D). Arrows highlight growth cones. Scale bars, 20 μm. (E) Brain sections from 6-week old C57/BL6 mice were stained for SorCS2. DG, dentate gyrus. Arrows highlight expression in dentate granule dendrites. Scale bar, 200 μm. (F) Both sortilin and SorCS2 interact with proBDNF. HEK 293 cells were transfected with proBDNF-HA and myc-sortilin or mycSorCS2, lysates were immunoprecipitated with anti-HA agarose and analyzed by Western blot with indicated antibodies. (G) IP-WB from 293T cells showing interactions between proNGF and sortilin and SorCS2.
(§2) The LifeAct sequence (RIEDL, J. et al., Nat Methods 5:605-607 (2008)) was cloned into the pEGFP-N1 backbone (Clontech) using the BglII and BamHI restriction sites. Trio constructs were described previously (FERRARO, F. et al., Mol Biol Cell 18:4813-4825 (2007)), human sortilin cDNA or human SorCS2 cDNA was subcloned into the pcDNA3.1 hygro expression vector (Invitrogen). […]

Rac = Rac activity assay (GST-Pak-CRIB pull-down of activated Rac); type: cell-based, mouse; conditions: mouse E15 DIV2 cortical neurons; 20 min; proBDNF with K252a
Description: Rac activity assays were performed as described previously (NEUBRAND, V. E. et al., Journal of Cell Science 123:2111-2123 (2010)). […] Cells were lysed in lysis buffer supplemented with 10 mM MgCl, lysates were cleared by centrifugation at 9000 g for 1 min, and cleared lysates were incubated with GST or GST-Pak-CRIB beads for 30 min at 4° C. Beads were washed and isolated active Rac was analyzed by Western blot. As a control, extra lysates were incubated with 0.1 mM GDP or 0.1 mM GTPγS for 30 min at room temperature before incubation with GST-Pak-CRIB beads. Western blots were analyzed by densitometry using ImageJ software, and isolated active Rac was normalized to the input.
GST and GST-Pak-CRIB proteins were expressed in E. coli BL21DE3 cells at 25° C. for 3 hours. Bacteria were disrupted by incubation with PBS supplemented with lysozyme on ice for 30 min and subsequent addition of 1 mM MgCl2, 0.1% TritonX-100 and 0.1 mg/ml DNAse for an additional 30 min. Bacterial lysates were cleared by centrifugation for 5 min at 3000 g and cleared lysates were incubated with glutathione sepharose. Beads were washed and the purity of the recombinant proteins was analyzed by Coomassie blue staining. 20 μg of sepharose coupled purified protein was used per reaction.

SorCS2 = molecular target: T2, SorCS2 (Homo sapiens, UniProt Q96PQ0); assay: Co-immunoprecipitation of proNT with SorCS2 in transfected 293 cells; type: binding; conditions: 293 cells co-transfected with proNT and myc-SorCS2; IP-Western blot
T2 construct: expressed in transfected cells; host or cells: HEK 293 cells (proBDNF) / 293T cells (proNGF)
Description: as §1, §2

T2 sequence (Q96PQ0 51-1159): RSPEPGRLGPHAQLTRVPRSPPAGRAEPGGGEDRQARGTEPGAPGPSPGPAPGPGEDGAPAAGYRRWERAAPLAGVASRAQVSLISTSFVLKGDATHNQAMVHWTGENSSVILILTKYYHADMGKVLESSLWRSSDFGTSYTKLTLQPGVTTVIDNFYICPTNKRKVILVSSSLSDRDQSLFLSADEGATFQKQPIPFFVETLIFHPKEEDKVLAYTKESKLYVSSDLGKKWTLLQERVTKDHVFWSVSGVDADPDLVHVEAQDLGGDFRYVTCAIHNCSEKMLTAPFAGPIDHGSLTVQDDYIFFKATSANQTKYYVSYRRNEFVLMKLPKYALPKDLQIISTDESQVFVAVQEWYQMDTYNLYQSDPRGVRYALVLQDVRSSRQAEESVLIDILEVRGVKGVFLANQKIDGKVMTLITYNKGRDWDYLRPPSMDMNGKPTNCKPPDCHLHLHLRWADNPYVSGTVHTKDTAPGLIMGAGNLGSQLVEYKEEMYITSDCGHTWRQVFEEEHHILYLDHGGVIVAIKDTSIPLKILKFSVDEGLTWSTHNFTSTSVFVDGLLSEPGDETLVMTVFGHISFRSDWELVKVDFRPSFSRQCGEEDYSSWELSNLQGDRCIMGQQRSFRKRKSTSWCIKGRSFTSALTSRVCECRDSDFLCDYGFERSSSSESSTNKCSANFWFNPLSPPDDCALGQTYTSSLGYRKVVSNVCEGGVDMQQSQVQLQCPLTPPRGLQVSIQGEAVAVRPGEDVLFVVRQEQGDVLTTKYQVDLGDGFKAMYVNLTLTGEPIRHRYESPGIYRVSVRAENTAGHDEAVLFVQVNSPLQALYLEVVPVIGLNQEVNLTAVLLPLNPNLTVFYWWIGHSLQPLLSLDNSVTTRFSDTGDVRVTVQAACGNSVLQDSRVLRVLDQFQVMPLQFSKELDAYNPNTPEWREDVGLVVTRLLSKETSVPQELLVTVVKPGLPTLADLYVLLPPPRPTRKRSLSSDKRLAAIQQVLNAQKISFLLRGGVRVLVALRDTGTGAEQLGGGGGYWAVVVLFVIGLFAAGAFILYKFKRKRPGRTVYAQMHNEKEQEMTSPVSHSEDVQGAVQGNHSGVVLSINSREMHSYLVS

Molecule: proNGF: proneurotrophin precursor of nerve growth factor, produced in Sf9 cells and purified
- interaction with sortilin (co-immunoprecipitation) (sortilin): co-immunoprecipitated with both sortilin and SorCS2
- Rac activity after proNT exposure (Rac): significant decrease in Rac activity
- interaction with SorCS2 (co-immunoprecipitation) (SorCS2): co-immunoprecipitated with both sortilin and SorCS2

- interaction with sortilin (co-immunoprecipitation) (sortilin): interact
- interaction with SorCS2 (co-immunoprecipitation) (SorCS2): interact
B1: proBDNF: murine proBDNF collected from supernatants of transfected 293 cells (protein)
chain: APMKEVNVHGQGNLAYPGVRTHGTLESVNGPRAGSRGLTTTSLADTFEHVIEELLDEDQKVRPNEENHKDADLYTSRVMLSSQVPLEPPLLFLLEEYKNYLDAANMSMRVRRHSDPARRGELSVCDSISEWVTAADKKTAVDMSGGTVTVLEKVPVSKGQLKQYFYETKCNPMGYTKEGCRGIDKRHWNSQCRTTQSYVRALTMDSKKRIGWRFIRIDTSCVCTLTIKRGR
- Rac activity after proNT exposure (Rac): significant decrease in Rac activity
